Tests used:
[1] = target: YibK-SH2 (periplasmic, from SS-YibK-SH2); assay: cell-based or functional assay
[2] = target: YibK(V139R)-SH2 (periplasmic, from SS-YibK(V139R)-SH2); assay: cell-based or functional assay
[3] = target: GCN4(7P14P)-SH2 (periplasmic, from SSPelB-GCN4(7P14P)-SH2, pMM95a) (yeast); assay: cell-based or functional assay
[4] = target: CadC1-155-Leu(16)TM-GCN4(7P14P) (pMM114a) (E. coli; yeast); assay: cell-based or functional assay
[5] = target: the molecule itself; assay: Western blot of whole-cell lysate with and without DTT

In the case of “YibK-SH2 (periplasmic, from SS-YibK-SH2)”, the PcadBA transcriptional activation (LuxAB luminescence) [1] is reported as 66 fold and the overnight phage propagation [1] is reported as greater than 1000 fold.

Work on “YibK(V139R)-SH2 (periplasmic, from SS-YibK(V139R)-SH2)” yielded a PcadBA-directed LuxAB expression [2] greater than 8 fold loss.

B1: Ω-graft-SH2 (periplasmic, from SS-Ω-graft-SH2) (scFv)
scFv: RDIVMTQSPSSLSASVGDRVTITCRSSTGAVTTSNYASWVQEKPGKLFKGLIGGTNNRAPGVPSRFSGSLIGDKATLTISSLQPEDFATYFCALWYSNHWVFGQGTKVELKRGGGGSGGGGSGGGGSSGGGSEVKLLESGGGLVQPGGSLKLSCAVSGFSLTDYGVNWVRQAPGRGLEWIGVIWGDGITDYNSALKDRFIISKDDCENTVYLQMSKVRSDDTALYYCVTGLFDYWGQGTLVTVSSGGSGGSGGSGGSGGSSLEKHSWYHGPVSRNAAEYLLSSGINGSFLVRESESSPGQRSISLRYEGRVYHYRINTASDGKLYVSSESRFNTLAELVHHHSTVADGLITTLHYPAPKR
Work on B1 yielded a PcadBA-driven LuxAB expression [3] of 30 fold and a phage enrichment in mock selection (PACE 12 hours or two PANCE passages) [3] greater than 1000 fold.

B2: Ω-graft(L231F F232A)-SH2 (periplasmic, from SS-Ω-graft(L231F F232A)-SH2) (scFv)
scFv: RDIVMTQSPSSLSASVGDRVTITCRSSTGAVTTSNYASWVQEKPGKLFKGLIGGTNNRAPGVPSRFSGSLIGDKATLTISSLQPEDFATYFCALWYSNHWVFGQGTKVELKRGGGGSGGGGSGGGGSSGGGSEVKLLESGGGLVQPGGSLKLSCAVSGFSLTDYGVNWVRQAPGRGLEWIGVIWGDGITDYNSALKDRFIISKDDCENTVYLQMSKVRSDDTALYYCVTGFADYWGQGTLVTVSSGGSGGSGGSGGSGGSSLEKHSWYHGPVSRNAAEYLLSSGINGSFLVRESESSPGQRSISLRYEGRVYHYRINTASDGKLYVSSESRFNTLAELVHHHSTVADGLITTLHYPAPKR
For B2, the PcadBA transcriptional activation (LuxAB) (fold decrease) [3] was 55.

B3: Ω-graft scFv variant 37o5c2.1 (R1C F232A) (scFv)
scFv: CDIVMTQSPSSLSASVGDRVTITCRSSTGAVTTSNYASWVQEKPGKLFKGLIGGTNNRAPGVPSRFSGSLIGDKATLTISSLQPEDFATYFCALWYSNHWVFGQGTKVELKRGGGGSGGGGSGGGGSSGGGSEVKLLESGGGLVQPGGSLKLSCAVSGFSLTDYGVNWVRQAPGRGLEWIGVIWGDGITDYNSALKDRFIISKDDCENTVYLQMSKVRSDDTALYYCVTGLADYWGQGTLVTVSS
In the case of B3, the overnight phage enrichment [4] is reported as 1000 fold.

B4: YibK(V139R R146C)-SH2 (periplasmic, pMM103g) (other)
chain: MLDIVLYEPEIPQNTGNIIRLCANTGFRLHLIEPLGFTWDDKRLRRSGLDYHEFAEIKRHKTFEAFLESEKPKRLFALTTKGCPAHSQVKFKLGDYLMFGPETRGIPMSILNEMPMEQKIRIPMTANSRSMNLSNSVARTVYEAWCQLGYKGAVNLPEVKGGSGGSGGSGGSGGSSLEKHSWYHGPVSRNAAEYLLSSGINGSFLVRESESSPGQRSISLRYEGRVYHYRINTASDGKLYVSSESRFNTLAELVHHHSTVADGLITTLHYPAPKR
B4: binds [5].
